The values that follow come from patent US20110159513A1.

Common to all, as to experiment: cell-based or functional assay
The target of assay [1] is ErbB1 on NCI-ADRr cells (UniProt P00533).
Assay [2] has the same target. The source holds these as a separate data set.
Assay [3] addresses ErbB3 on tumour cells (NCI-ADRr, OVCAR8, OVCAR8-HER2) (UniProt P21860).

Read-outs that look alike come from different tables or passages of the source.

Turning to “transforming growth factor alpha (from UniProt P01135 40-89) (ligand)”, the pErbB1 EC50 [nM], NCI-ADRr with ErbB1 on NCI-ADRr cells [1] amounted to 30 nM.
As to “heparin-binding epidermal growth factor (from UniProt Q99075 63-148) (ligand)”, in the assay with ErbB1 on NCI-ADRr cells [1], the pErbB1 % stimulation at 5 min relative to maximum came to 87% and the pErbB1 EC50 [nM], NCI-ADRr was found to be 21 nM.
In the assay with ErbB1 on NCI-ADRr cells [1], “betacellulin (from UniProt P35070 32-111) (ligand)” had a pErbB1 EC50 [nM], NCI-ADRr of 5.7 nM.

B1: amphiregulin (ligand, UniProt P15514 101-198, looked up)
chain: SVRVEQVVKPPQNKTESENTSDKPKRKKKGGKNGKNRRNRKKKNPCNAEFQNFCIHGECKYIEHLEAVTCKCQQEYFGERCGEKSMKTHSMIDSSLSK
In the case of B1, in the assay with ErbB1 on NCI-ADRr cells [2], the pErbB1 % stimulation at 5 min relative to maximum worked out at 95% and the pErbB1 EC50 [nM], NCI-ADRr turned out to be 37 nM.

B2: Epigen (ligand, UniProt Q6UW88 23-104, looked up)
chain: AAVTVTPPITAQQGNWTVNKTEADNIEGPIALKFSHLCLEDHNSYCINGACAFHHELEKAICRCFTGYTGERCEHLTLTSYA
In the assay with ErbB1 on NCI-ADRr cells [2], B2 registered a pErbB1 % stimulation at 5 min relative to maximum of 12%.

B3: heregulin HRG1-β (ligand, UniProt Q02297-6 177-241, looked up)
chain: SHLVKCAEKEKTFCVNGGECFMVKDLSNPSRYLCKCPNEFTGDRCQNYVMASFYKHLGIEFMEAE
On to B3, for which, in assay [3], the pErbB3 % stimulation at 5 min relative to maximum stood at 100% and the pErbB3 EC50 [nM], NCI-ADRr turned out to be 9.9 nM.
